Measured values published in patent US6878521B1, “Fibril-blocking peptide, a method for preventing fibril formation” (The University of Chicago, priority 1999, dated 2005).
Entries after “also recorded” stand apart in the source; their conditions may differ. Where a SMILES comes first, the peptide text is derived from it. [ ]: non-standard residue; d: D form. Nle = CCCC[C@H](N)C(=O)O

Tests used:
[1] = test system: SMA LC expressed in COS cells; experiment: aggresome formation in SMA-transfected COS cells, immunofluorescence; type: cell-based; conditions: for proportion of COS cells containing aggresomes: SMA-transfected, immunofluorescence, Hsp70 co-expressed, with or without ALLN; for cells exhibiting aggresomes: anti-kappa stained cells, peptides added with ALLN
Experimental: COS-1 cells were transiently transfected with FuGENE 6 transfection reagent (Roche Molecular Biochemicals, Indianapolis, Ind.) according to manufacturer's instructions and analyzed two days later. Overnight incubations with various concentrations of ALLN (SEQ. ID. NO. 11) (Sigma Chemical Co., St. Louis, Mo.), 10 μM lactacystin (Calbiochem, La Jolla, Calif.), 10 μg/ml nocodazole (Sigma), or various concentrations of peptides were begun the day following transfection.
A peptide was synthesized that fused an HIV TAT sequence (YGRKKRRQRRR) (SEQ. ID. NO. 8) with the VL derived sequence which the inventors have shown inhibit fiber formation in vitro, discussed supra. To ensure adequate flexibility and solubility, additional VL sequence was added on both sides of the active 7-mer, generating the following sequence for the TAT-TISS peptide: NH2-[…]-OH. (SEQ. ID. NO. 9) A control peptide was synthesized (TAT-PASS) in which the critical hydrophobic residues were substituted with alanines and the extended structure of the peptide destroyed by the addition of a proline (NH2-[…]-OH). (SEQ. ID. NO. 10) cells were treated with either peptide 24 h after transfection and incubated overnight in the presence of the indicated concentrations of ALLN. (SEQ. ID. NO. […]) Cells were then harvested for western blotting or immunofluorescence as described above.
Without ALLN (SEQ. ID. NO. 11) treatment 30% of the COS cells contained aggresomes as assayed by immunofluorescence.
Lastly, the inventors determined that the decrease in steady state level of SMA in the presence of TAT-TISS (SEQ. ID. NO. 9) peptide correlated with a decrease in the frequency of aggresome formation, by scoring anti-kappa stained cells.

transthyretin = transthyretin (Homo sapiens, UniProt P02766); conditions: Peterson et al. 1998; cited from earlier work
[2] = target: SMA, recombinant kappa-IV light chain variable domain (VL) (human); experiment: cell-based or functional assay
[3] = target: T1, SMA (kappa-IV recombinant VL) (Homo sapiens, UniProt P06312, K56R/P66L/Q115H/T120H); experiment: agitation-based in vitro SMA fibril formation assay (fluorescence); type: biochemical; conditions: for inhibition of SMA fibril formation: in vitro, result in words
T1 construct: two kappa-IV recombinant VL, LEN and SMA; made in house
Experimental: Further, the inventors used an agitation-based in vitro assay to assemble fibrils from two kappa-IV recombinant VL, LEN and SMA.
Fibril formation was measured over time at each peptide concentration. The extent of SMA fibril formation at 45 hours in the presence of various concentration so fthe peptides is plotted relative to that of SMA alone at 45 hours.
In the BiP reactions, SMA fibril formation was assayed in the range of 1 to 1000 moles SMA per mole of fibril antagonist.

λ6 VL protein = experiment: in vitro fibril assembly of λ6 VL protein; type: biochemical
[4] = test system: SMA LC expressed in COS-1 cells; experiment: biochemical assay of soluble and insoluble SMA in transfected COS-1 cells (western blot); type: cell-based; conditions: for intracellular aggregation of SMA: in cells, result in words; for amount of SMA recovered: 50 μM peptide, overnight, 1-10 μg/ml ALLN
SMA = experiment: co-immunoprecipitation with SMA using anti-kappa antibody; type: binding, human; conditions: co-transfected, metabolically labeled cells, soluble fractions
Experimental: Culture, metabolic labeling, lysis and immunoprecipitation of COS-1 cells were performed as described in Dul et al. Immunol. […] The following antibodies were used in immunoprecipitations: rabbit anti-human kappa antibody (Bethyl Labs, Montgomery, Tex.); goat anti-human kappa (Caltag, Burlingame, Calif.); mouse anti-ubiquitin (StressGen, Victoria, BC, Canada).
Endogenous Hsp70 was also associated with SMA, but was not dramatically enriched.

Sequence of BiP (binding protein), endoplasmic reticulum chaperone, recombinant wild type (P07823 19-654): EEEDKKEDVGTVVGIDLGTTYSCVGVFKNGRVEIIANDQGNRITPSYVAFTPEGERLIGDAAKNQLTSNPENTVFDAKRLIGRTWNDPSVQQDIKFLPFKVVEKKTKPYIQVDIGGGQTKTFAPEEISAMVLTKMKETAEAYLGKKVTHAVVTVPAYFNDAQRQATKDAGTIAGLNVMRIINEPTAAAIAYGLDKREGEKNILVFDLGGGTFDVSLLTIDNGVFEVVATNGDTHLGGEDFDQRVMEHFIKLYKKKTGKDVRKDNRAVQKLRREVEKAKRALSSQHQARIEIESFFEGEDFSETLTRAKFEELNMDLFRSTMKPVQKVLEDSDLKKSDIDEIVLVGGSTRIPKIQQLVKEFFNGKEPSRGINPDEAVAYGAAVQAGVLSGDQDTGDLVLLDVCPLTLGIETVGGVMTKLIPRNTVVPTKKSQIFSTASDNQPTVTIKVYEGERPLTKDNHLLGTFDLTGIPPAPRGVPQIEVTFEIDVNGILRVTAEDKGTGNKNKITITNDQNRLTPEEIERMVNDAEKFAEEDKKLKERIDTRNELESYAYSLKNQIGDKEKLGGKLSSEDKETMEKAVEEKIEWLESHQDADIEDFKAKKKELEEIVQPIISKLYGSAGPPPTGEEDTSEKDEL

Compound: CCCC[C@@H](C=O)NC(=O)[C@H](CC(C)C)NC(=O)[C@H](CC(C)C)NC(C)=O [ALLN, reference compound] (Ac-Leu-Leu-[Nle]-aldehyde)
- proportion of COS cells containing aggresomes [1]: 75%
- cells exhibiting aggresomes [1]: about 65%

Compound: O=C(O)c1ccccc1Nc1cccc(C(F)(F)F)c1 [flufenamic acid]
- inhibition of conformational changes of transthyretin (transthyretin): inhibits the conformational changes

Compound: BiP (binding protein), endoplasmic reticulum chaperone, recombinant wild type
- SMA fibril formation (fluorescence units) at 30 SMA:1 BiP [2]: < 10 percent
- SMA fibril formation (fluorescence) at 100:1 stoichiometric ratio [2]: 75 percent
- SMA fibril formation (fluorescence) at 300:1 stoichiometric ratio [2]: 100 percent
- inhibition of SMA ordered aggregation at 75 hours, 1 mole BiP per 100 moles SMA [2]: 50%

Compound: FTLKISR
- inhibition of SMA fibril formation [3]: inhibited as well as FTLTISS
- inhibition of fibril assembly of λ6 VL protein (λ6 VL protein): inhibited fibril assembly

Compound: FTLTISS [Phe71-Thr72-Leu73-Thr74-Ile75-Ser76-Ser77, peptide of positions 71 through 77 of human kappa-4 light chain variable domain]
- inhibition of SMA fibril formation [3]: fibril blocking; also recorded: markedly inhibited the aggregation
- intracellular aggregation of SMA [4]: effective in reducing intracellular aggregation

Compound: FYQLALT [reference compound]
- effect of prebinding BiP with peptide on BiP's suppression of fibril assembly ([3]; BiP incubated with peptide before aggregation reaction): blocked the chaperone's ability to suppress fibril assembly

Compound: H-YGRKKRRQRRRSGSGTDATAPASSLQAED-OH [TAT-PASS, reference compound]
- inhibition of SMA fibril formation [3]: does not inhibit fibril formation in vitro
- cells exhibiting aggresomes [1]: no significant effect
- effect on yield of SMA ([4]; 10 μg/ml ALLN, highest peptide concentration used): only a marginal effect
- amount of SMA recovered [4]: no effect

Compound: H-YGRKKRRQRRRSGSGTDFTLTISSLQAED-OH [TAT-TISS]
- cells exhibiting aggresomes [1]: 25%
- ubiquitinated forms of SMA [4]: diminished
- amount of SMA recovered [4]: dramatically reduced

Compound: Hsp70: heat shock protein 70, a family member of BiP; cytosolic chaperone
- inhibition of SMA fibril formation [3]: blocked fibril formation
- inhibition of SMA fibril formation ([3]; listed as heat shock protein (hsp)70): did inhibit fibril formation
- proportion of COS cells containing aggresomes [1]: 12%
- frequency of aggresome formation ([1]; co-expression with SMA, result in words): decreases the frequency of aggresome formation
- ubiquitinated forms of SMA [4]: decrease in the pool of ubiquitinated SMA
- intracellular aggregation of SMA [4]: decreases its aggregation
- association with SMA by co-immunoprecipitation (SMA): specifically co-immunoprecipitated with SMA

Compound: Lysozyme [reference compound]
- inhibition of SMA fibril formation [3]: no appreciable fibril blocking ability
- inhibition of SMA fibril formation ([3]; listed as lysozome): did not significantly decrease fibril formation

Compound: PKLLIYWA
- inhibition of SMA fibril formation [3]: partial inhibition

Compound: TDFTLTI
- inhibition of SMA fibril formation [3]: markedly inhibited the aggregation

Compound: TRIFSKL [reference compound]
- inhibition of SMA fibril formation [3]: ineffective fibril blocker

Compound: albumin [reference compound]
- inhibition of SMA fibril formation [3]: did not significantly decrease fibril formation

Compound: ferritin [reference compound]
- inhibition of SMA fibril formation [3]: did not significantly decrease fibril formation
